Results taken from patent publication US7166733B2, “O,O'-Amidomalonate and N,O-Amidomalonate platinum complexes” (priority 2000, dated 2007).

Tests used:
[1] = Platinum release from PBS; type: physicochemical; conditions: 37° C.
Experimental: The percent of small platinum species released over time was measured by dissolving about 30 mg of the polymer-platinum conjugate in 15 mL of phosphate buffered saline (10 mM phosphate, 123 mM Cl^−) and incubating the solution at 37° C. in a water bath. At indicated times, 2.0 mL aliquots were transferred to a centrifugal filter with a 3 kDa nominal molecular weight cutoff (Centricon YM-3 from Millipore) and spun until >1.5 mL of filtrate had accumulated. The timed filtrates and the original solution were analyzed for platinum by ICP-OES. The percent of small Pt species released was determined using the formula: ((ppm Pt in filtrate)/(ppm Pt in stock solution))×100.

Bl6FI0 melanoma cells = assay: Clonogenic (colony-formation) assay; type: cell-based, murine; conditions: 7 days incubation
Experimental: The relative cytotoxic activity of various O,O′—Pt chelate analogs were evaluated in vitro by means of a clonogenic (colony-formation) assay employing a tissue culture of Bl6FI0 melanoma cells. In this way, the activity of the analogs was compared to that of cisplatin and carboplatin. The effect of conversion to an N,O—Pt chelate was also evaluated. Briefly, cells were seeded into culture dishes and allowed to attach. The cultures were incubated for 7 days in medium containing the desired concentration of the test agent. After fixation, the number of cell clusters containing >50 cells was scored as a colony. Each concentration of test agent was assayed in triplicate. The mean number of colonies in each of the triplicate dishes was divided by the mean number of colonies in the control (no test agent) dishes to obtain a percent survival value for each concentration of test agent. The IC50 (concentration resulting in 50% inhibition of growth) of each of the agents was determined by linear regression analysis using the data values directly above and below the 50% survival point.

[2] = Maximum tolerated dose on a qd×5 schedule in the B16 melanoma model; type: in vivo; conditions: IP, C57BL/6 mice
Experimental: (§1) A study was conducted to compare the antitumor activity of poly(HPMA)-GFLG-Ama=Pt=DACH with that of carboplatin in the B16 melanoma model when each agent was administered as an IP injection daily for 5 days (qd×5). The poly(HPMA)-GFLG-Ama=Pt=DACH material was also given at days 15, 16, and 17. Both compounds were given at their respective maximum tolerated (equitoxic) doses on this regimen.
(§2) Female C57BL/6 mice weighing 18–20 g were implanted s.c. with 10^6 B16F10 tumor cells harvested from tissue culture. The size of the resulting tumor was followed individually throughout the study. Tumor mass (in mg) was calculated as (W^2×L)/2, where W is the shorter tumor dimension and L is the longer tumor dimension. Individual treatments were administered when the tumor was 75–100 mg in size. The injection volume was 0.04 mL per gram of body weight, and the drug was administered intraperitoneally. Tumor mass and body weight were measured daily. Data are expressed as the mean±SEM of the tumor mass and are plotted until 50% of the animals in each treatment group have died or been sacrificed due to excessive tumor mass, tumor ulceration, or morbidity. For comparison of the activity of different agents, each administered at its respective maximum tolerated doses (MTD), the MTD is defined as that dose which reproducibly induces no more than 10% (1 out of each 10 animals per group) early toxic deaths not attributable to tumor burden, and which results in a mean maximum body weight loss (i.e., the group mean of the nadir in each individual mouse weight, regardless of the day on which it occurred) of 10–15%, followed by recovery in lost weight.
(§3) A study was conducted to compare the antitumor activity of p(HPMA)-GFLG-C3-Sulf-Ama=Pt=DACH with that of carboplatin in the B16 melanoma model when each agent was administered as an IP injection daily for 5 days (qd×5). Both compounds were given at their respective maximum tolerated (equitoxic) doses on this regimen.
(§4) The methods utilized in this study were identical to those utilized for the p(HPMA)-GFLG-C3-Sulf-Ama=Pt=DACH study of Example 38.

B16 melanoma = assay: Antitumor activity in the B16 melanoma model, multi-dose protocol; type: in vivo; conditions: s.c. B16F10 in C57BL/6 mice
Experimental: as §1, §2, §3, §4

[3] = Dependence on pH of the isomer ratio of O,O′—Pt to N,O—Pt chelate (195Pt NMR of timed aliquots); type: physicochemical
Experimental: The percent of O,O′- and N,O-chelate in timed aliquots of reactions mixtures were determined by removing enough of the reaction mixture (4–15 mL depending on concentration) to give greater than 100 mg of Pt-chelate if only ^195Pt NMR spectroscopy was to be done or about 200 mg if % Pt, and % H2O were also to be determined. The aliquots were purified by ultrafiltration using a Centricon Plus-20 centrifugal filter with a 5 kDa Biomax membrane from Millipore. The charged device was spun at the recommended RCF until less than 1 mL remained. The filtrate was discarded, the retentate was diluted with 15–18 mL water and the sample was centrifuged. This was repeated once more, and the retentate was lyophilized to give the sample for analysis.
^195Pt NMR spectra were obtained from a filtered 0.70 mL solution in 93/7 H2O/D2O in a 5 mm tube. Enough sample (80–120 mg) was used to give a solution that was >50 mM in platinum. The probe was tuned for each sample. A pulse width of 90 degrees, an acquisition time of 10 msec, a spectral window of 100 kHz and no delay was used. The transmitter was tuned to approximately midway between the O,O′—Pt and N,O—Pt chelates shifts (−1896 ppm for cis-diammine Pt and at −2450 for DACH—Pt). Between 50,000 and 1 million transients were typically required to obtain a sufficient (>35:1) s/n ratio for the cis-diammine-Pt and DACH=Pt species, respectively. The resulting FID was increasingly left-shifted until a flat baseline was obtained, a 100 Hz line broadening was applied, and a Fourier fill of 2048 was applied before processing. Integral regions were set and the spectrum's baseline was subjected to a spline fit using VNMR software v6.1. The sample was referenced externally to a 100 mM sample of K2PtCl4 in 95/5H2O/D2O and 100 mM HCl at −1624 ppm. This was also used to determine the 90 degree pulse width and T1.
Four 50 mL Centrifuge tubes were each charged with 1.00 g of p(HPMA)-GFLG-Ama=Pt(NH3)2 (either 100% N,O-chelate) or a 92% O,O-chelate, 8% N,O-chelate mixture. These materials were dissolved in 27 mL Milli-Q water (approx a 4 wt % solution) and adjusted to the pH ranges desired using 1 M NaOH or 5% HClO4 as appropriate. The samples were then heated, with stirring, in a 38° C. water bath and maintained within their specified pH ranges. Timed aliquots were taken and frozen until a suitable time at which point the solutions were concentrated by centrifugal ultrafiltration (one spin down at 4800 rpm, 30° C.) and then transferred to an NMR tube. A small amount of D2O was added to each tube and the ^195Pt NMR spectra were recorded.

[4] = Single-dose IV maximum tolerated dose study; type: in vivo; conditions: mice, highest dose with no drug-induced deaths
Source text: For these studies, the MTD was defined as the highest dose evaluated in which no mouse deaths resulted from drug-induced toxicity.

[5] = Example 38 study, IP qd×5 at MTD (polymer also days 15, 16, 17)
[6] = Example 39 study, IP qd×5 at MTD
[7] = pH 5.0–5.5, 38° C., 100 mM ClO4^−, 1 h
[8] = pH 5.0–5.5, 38° C., 100 mM ClO4^−, 5 h
[9] = pH 5.0–5.5, 38° C., 100 mM ClO4^−, 8 h
[10] = pH 5.0–5.5, 38° C., 100 mM ClO4^−, 22 h
[11] = pH 5.0–5.5, 38° C., 100 mM Cl^−, 1 h
[12] = pH 5.0–5.5, 38° C., 100 mM Cl^−, 5 h
[13] = pH 5.0–5.5, 38° C., 100 mM Cl^−, 8 h
[14] = pH 5.0–5.5, 38° C., 100 mM Cl^−, 22 h

Compound: poly(HPMA)-GGGG-Ama=Pt=1R,2R-DACH N,O-Chelate [Example 21]
- Pt release in PBS ([1]; 3 hours): 0.972%
- Pt release in PBS ([1]; 24 hours): 3.173%

Compound: poly(HPMA)=GFLG-Ama=Pt=DACH, O,O′—Pt chelate [Example 5]
- Pt release in PBS ([1]; 3 hours): 6.0%
- Pt release in PBS ([1]; 24 hours): 10.9%
- IC50 (Bl6FI0 melanoma cells): 1000 nM

Compound: poly(HPMA)-GG-NH(CH2)3SO2Ama=Pt=DACH, Approx. 22 kDa [Example 25]
- Pt release in PBS ([1]; 3 hours): 1.0%
- Pt release in PBS ([1]; 24 hours): 1.93%

Compound: poly(HPMA)-GG-Ama=Pt(NH3)2 N,O Chelate [Example 17]
- Pt release in PBS ([1]; 3 hours): 1.4%
- Pt release in PBS ([1]; 24 hours): 4.6%

Compound: p(HPMA)-GFLG-Ama═Pt═(NH3)2, 45 kDa, O,O′—Pt
- IC50 (Bl6FI0 melanoma cells): 1000 nM

Compound: poly(HPMA)-GFLG-Ama=Pt(NH3)2, N,O—Pt chelate, >351 kDa [Example 14]
- Pt release in PBS ([1]; 3 hours): 0.68%
- Pt release in PBS ([1]; 24 hours): 2.28%

Compound: N.N.O=C([O-])C1(C(=O)[O-])CCC1.[Pt+2] [Carboplatin, reference compound]
- IC50 (Bl6FI0 melanoma cells): 2400 nM
- maximum tolerated dose [2]: 60 mg/kg
- maximum tolerated dose, equivalent in Pt [2]: 32 mg Pt/kg
- inhibition of tumor growth (B16 melanoma; [5]): modest inhibition of tumor growth
- inhibition of tumor growth (B16 melanoma; [6]): very little inhibition of tumor growth

Compound: p(HPMA)-GFLG-Ama═Pt═(NH3)2, 90 kDa, O,O′—Pt
- IC50 (Bl6FI0 melanoma cells): 900 nM

Compound: p(HPMA)-GFLG-Ama=Pt=DACH
- maximum tolerated dose [2]: 100 mg Pt/kg
- inhibition of tumor growth (B16 melanoma; [5]): tumor growth was substantially slowed and prolonged

Compound: poly(HPMA)-GG-Ama=Pt=DACH N,O-Chelate [Example 18]
- Pt release in PBS ([1]; 3 hours): 1.3%
- Pt release in PBS ([1]; 24 hours): 5.5%

Compound: poly(HPMA)-GFLG-NH(CH2)3SO2-Ama=Pt=DACH N,O-chelate [Example 29]
- Pt release in PBS ([1]; 3 hours): 2.12%
- Pt release in PBS ([1]; 24 hours): 4.54%
- maximum tolerated dose [2]: 75 mg Pt/kg
- inhibition of tumor growth (B16 melanoma; [6]): more marked inhibition in tumor growth

Compound: N.N.[Cl][Pt][Cl] [Cisplatin, cis-diamminedichloroplatinum(II), reference compound]
- IC50 (Bl6FI0 melanoma cells): 500 nM

Compound: poly(HPMA)-GFLG-Ama=Pt(NH3)2O,O′—Pt chelate [Example 3]
- N,O— chelate ([3]; pH 3.0–3.5, 38° C., 1 h): 0%
- O,O— chelate ([3]; pH 3.0–3.5, 38° C., 1 h): 100%
- N,O— chelate ([3]; pH 3.0–3.5, 38° C., 5 h): 3%
- O,O— chelate ([3]; pH 3.0–3.5, 38° C., 5 h): 97%
- N,O— chelate ([3]; pH 3.0–3.5, 38° C., 20 h): 2%
- O,O— chelate ([3]; pH 3.0–3.5, 38° C., 20 h): 98%
- N,O— chelate ([3]; pH 4.0–4.5, 38° C., 1 h): 25%
- O,O— chelate ([3]; pH 4.0–4.5, 38° C., 1 h): 75%
- N,O— chelate ([3]; pH 4.0–4.5, 38° C., 5 h): 21%
- O,O— chelate ([3]; pH 4.0–4.5, 38° C., 5 h): 79%
- N,O— chelate ([3]; pH 4.0–4.5, 38° C., 20 h): 28%
- O,O— chelate ([3]; pH 4.0–4.5, 38° C., 20 h): 72%
- N,O— chelate [3, 7]: 31%
- O,O— chelate [3, 7]: 69%
- N,O— chelate [3, 8]: 56%
- O,O— chelate [3, 8]: 44%
- N,O— chelate [3, 9]: 67%
- O,O— chelate [3, 9]: 33%
- N,O— chelate [3, 10]: 60%
- O,O— chelate [3, 10]: 40%
- N,O— chelate [3, 11]: 31%
- O,O— chelate [3, 11]: 69%
- N,O— chelate [3, 12]: 54%
- O,O— chelate [3, 12]: 46%
- N,O— chelate [3, 13]: 68%
- O,O— chelate [3, 13]: 32%
- N,O— chelate [3, 14]: 68%
- O,O— chelate [3, 14]: 32%
- N,O— chelate ([3]; pH 5.0–5.5, 38° C., 1 h): 33%
- O,O— chelate ([3]; pH 5.0–5.5, 38° C., 1 h): 67%
- N,O— chelate ([3]; pH 5.0–5.5, 38° C., 5 h): 49%
- O,O— chelate ([3]; pH 5.0–5.5, 38° C., 5 h): 51%
- N,O— chelate ([3]; pH 5.0–5.5, 38° C., 20 h): 65%
- O,O— chelate ([3]; pH 5.0–5.5, 38° C., 20 h): 35%
- N,O— chelate ([3]; pH 6.0–6.5, 38° C., 1 h): 43%
- O,O— chelate ([3]; pH 6.0–6.5, 38° C., 1 h): 57%
- N,O— chelate ([3]; pH 6.0–6.5, 38° C., 5 h): 66%
- O,O— chelate ([3]; pH 6.0–6.5, 38° C., 5 h): 34%
- N,O— chelate ([3]; pH 6.0–6.5, 38° C., 20 h): 91%
- O,O— chelate ([3]; pH 6.0–6.5, 38° C., 20 h): 9%
- IC50 (Bl6FI0 melanoma cells): 800 to 1100 nM
- maximum tolerated dose (MTD) [4]: 80–100 mg PVkg

Compound: poly(HPMA)-GFLG-Ama=Pt=DACH, N,O—Pt chelate [Example 6]
- IC50 (Bl6FI0 melanoma cells): < 4000 nM

Compound: poly(HPMA)-GFLG-C3-Sulf-Ama=Pt(NH3)2 N,O-chelate [Example 28]
- Pt release in PBS ([1]; 3 hours): 3.02%
- Pt release in PBS ([1]; 24 hours): 5.44%
